Results on nine molecules are retold here after patent publication US20060233788A1 (published 2006).

B1: full-length, acylated rat ghrelin (peptide, UniProt Q9QYH7 24-51, looked up)
peptide: GSSFLSPEHQKAQQRKESKKPPAKLQPR
modifications: also: acylated (position and acyl group not given here)
notes: mature; The UniProt entry is the precursor; the assay used the ghrelin peptide; also called rGhrelin
B2: full-length human ghrelin (1-28) acylated with an octanoyl group on the serine at position 3 (peptide)
peptide: GSSFLSPEHQRVQQRKESKKPPAKLQPX
modifications: octanoyl group on the serine at position 3
notes: the 1-28 form has Arg at 28; also called hGhrelin; acylated hGhrelin
B3: Human 1-13 acyl (peptide)
peptide: GSSFLSPEHQRVQ
modifications: also: acyl (position and group not restated)
notes: also called human ghrelin 1-13 acyl; active human ghrelin analog
B4: Fab 4641 (Fab, V domains shown)
VH: QVQLQQSRPELVRPGASVKMSCRASAYTFTTYWMHWVRQRPGQGLEWIGMIDPSNSDTWLNQKFKDKATLNVDRSSNTAYMQLTSLTSEDSAVYYCARTGFDYWGQGTTLTVSS
VL: DVVMTQTPLSLPVSLGDQASISCRSSQSLVHSDGNTYLHWYLQKPGQSPKLLIYKVSNRFSGVPDRFSGSGSGTDFTLKISRVEAEDLGVYFCSQSTYVSYTFGGGTKLEIKR
notes: Mouse Fab
B5: Ghrelin (1-8, desacyl) (peptide)
peptide: GSSFLSPE
notes: also called hGhrelin (1-8 desacyl)
B6: Fab 1181 (Fab, V domains shown)
VH: QVQLQQSGAELVRSGASVKLSCTASGFNIKDYFMQWVKQRPEQGLEWIGWIDPENGETGYAPKFQGKATMTADTASNTAYLQLSSLTSEDTALYYCNAPSVVAKYFDVWGAGTTVTVSS
VL: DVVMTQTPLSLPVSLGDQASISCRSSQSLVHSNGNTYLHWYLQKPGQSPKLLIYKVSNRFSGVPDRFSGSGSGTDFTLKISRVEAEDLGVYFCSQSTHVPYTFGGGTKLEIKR
notes: Mouse Fab from an Omniclonal library (Biosite); kappa light chain (detected and captured with goat anti-mouse kappa); the HCVR amino acid entry is 12
B7: Fab 1621 (Fab, V domains shown)
VH: B6 VH with M34V, Y95F
VL: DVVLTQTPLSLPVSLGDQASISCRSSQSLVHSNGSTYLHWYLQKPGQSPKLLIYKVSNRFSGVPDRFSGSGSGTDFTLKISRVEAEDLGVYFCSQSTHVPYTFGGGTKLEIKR
notes: Mouse Fab, kappa light chain
B8: Ghrelin (1-8 acyl) (peptide)
peptide: GSS(Octanoyl)FLSPE
notes: also called hGhrelin (1-8 acyl); Human 1-8 acyl
B9: Ghrelin (9-28) (peptide)
peptide: HQRVQQRKESKKPPAKLQPR
notes: also called hGhrelin (9-28)

Assay [1] deals with B7. The assay can be described thus: competitive ELISA, Fab 1621 on coated BSA-hGhrelin; compound 0 (baseline, no compound). On the procedure: (§1) The plate was incubated at 4° C. overnight. The wells are aspirated and washed twice with washing buffer (20 mM Tris-Cl, pH 7.4, 0.15 M NaCl, 0.1% Tween 20). Compounds (i.e., human ghrelin or ghrelin analogs) are diluted into antibody solution. […] The compound concentration is varied as listed in Tables 2-5 below, but the Fab concentration is kept constant at 0.1 μg/ml in blocking solution (10 mg/ml BSA in wash buffer). […] The plates are incubated for 1 hour at room temperature. The wells are then washed three times with washing buffer.
(§2) Peroxidase-conjugated secondary antibody (50 μl goat anti-mouse kappa HRP (Southern Biotech), diluted 1:2000 in blocking buffer) is added to each well and incubated for 1 hour at room temperature. The wells are then washed 4 times with washing buffer. Fifty microliters of chromogenic substrate (i.e., OPD substrate) is added to each well and allowed to develop at room temperature for 10 minutes. The reaction is stopped by adding 100 μl 1N HCl to each well. The absorbance of the wells is read at 490 nm.
(§3) The average absorbance from triplicate wells is determined.
In general terms: An ELISA detects its analyte on a solid surface through an enzyme-linked reagent.
Target sequence in this assay (VL, as listed by the source limits assumed): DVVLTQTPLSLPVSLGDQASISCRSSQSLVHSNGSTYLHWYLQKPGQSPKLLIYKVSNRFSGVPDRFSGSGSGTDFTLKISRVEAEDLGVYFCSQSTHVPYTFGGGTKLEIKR

The target in assay [2] is B6. The assay can be described thus: competitive ELISA, Fab 1181 on coated BSA-hGhrelin; compound 1 ug/ml. The protocol: as §1, §2, §3
Target sequence in this assay (VL, as listed by the source, chain 2 of 2, one chain of several): as the sequence (VL, as listed by the source limits assumed) above, with L4M, S35N counted along it
For assay [3], the target named is B6. The assay can be described thus: competitive ELISA, Fab 1181 on coated BSA-hGhrelin; compound 0 (baseline, no compound). The protocol: as §1, §2, §3
Assay [4] has as its target B6. The assay can be described thus: competitive ELISA, Fab 1181 on coated BSA-hGhrelin; compound 5 ug/ml. The protocol: as §1, §2, §3
Target sequence in this assay (VL, as listed by the source, chain 2 of 2, one chain of several): as the sequence (VL, as listed by the source limits assumed) above, with L4M, S35N counted along it
Assay [5] addresses T1, GHS-R1a human ghrelin receptor (human, UniProt Q92847 1-366).
T1 construct: whole, on cells; also called GHS-1a receptor; growth hormone secretagogue receptor
The assay can be described thus: FLIPR calcium assay, AV12 cells expressing human GHS-R1a.

In assay [6] the target is B6. Nature of the assay: competitive ELISA, Fab 1181 on coated BSA-hGhrelin; compound 0.2 ug/ml. On the procedure:
as §1, §2, §3
Target sequence in this assay (VL, as listed by the source, chain 2 of 2, one chain of several): as the sequence (VL, as listed by the source limits assumed) above, with L4M, S35N counted along it

The target of assay [7] is B7. The assay can be described thus: competitive ELISA, Fab 1621 on coated BSA-hGhrelin; compound 0.2 ug/ml. On the procedure: as §1, §2, §3
Target sequence in this assay (VH, as listed by the source limits assumed, chain 1 of 2): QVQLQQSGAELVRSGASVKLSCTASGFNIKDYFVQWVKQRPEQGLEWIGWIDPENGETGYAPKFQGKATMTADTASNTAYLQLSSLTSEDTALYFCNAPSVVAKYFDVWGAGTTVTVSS
Target sequence in this assay (VL, as listed by the source limits assumed, chain 2 of 2): as the sequence (VL, as listed by the source limits assumed) above
In assay [8] the target is B7. The assay can be described thus: competitive ELISA, Fab 1621 on coated BSA-hGhrelin; compound 5 ug/ml. The protocol:
as §1, §2, §3
Target sequence in this assay (VH, as listed by the source limits assumed, chain 1 of 2): as the sequence (VH, as listed by the source limits assumed, chain 1 of 2) above
Target sequence in this assay (VL, as listed by the source limits assumed, chain 2 of 2): as the sequence (VL, as listed by the source limits assumed) above

In assay [9] the target is B7. The assay can be described thus: competitive ELISA, Fab 1621 on coated BSA-hGhrelin; compound 1 ug/ml. On the procedure:
as §1, §2, §3
Target sequence in this assay (VH, as listed by the source limits assumed, chain 1 of 2): as the sequence (VH, as listed by the source limits assumed, chain 1 of 2) above
Target sequence in this assay (VL, as listed by the source limits assumed, chain 2 of 2): as the sequence (VL, as listed by the source limits assumed) above

Assay [10] addresses T2, peptide spanning amino acids 14-28 of human ghrelin (human).
T2 peptide: QRKESKKPPAKLQPR
Nature of the assay: FLIPR assay, peptide competes with hGhrelin for the Fab (Fab 5 nM). On the procedure: The final concentration of the sample solution is 0.75% BSA, and calcium at approximately the same concentration as in the FLIPR buffer. Fifty microliters of the sample solution is added to the 50 μl FLIPR buffer in the well with the AV12 cells. […] The cell plate is shaken for 15 seconds prior to loading it into the FLIPR instrument. Test samples or control samples are added to each well, and read by a Fluorometric Imaging Plate Reader (Molecular Devices).

Assay [11] addresses B1. Nature of the assay: SPR (BIAcore 2000), Fab captured on goat anti-mouse kappa, ghrelin in solution, 25 C. The protocol: (§4) The BIAcore® utilizes the optical properties of surface plasmon resonance to detect alterations in protein concentration of interacting molecules within a dextran biosensor matrix. Except where noted, all reagents and materials are purchased from BIAcore® AB (Upsala, Sweden). All measurements are performed at 25° C. Samples containing rat or human ghrelin (full length, acylated) are dissolved in HBS-EP buffer (150 mM sodium chloride, 3 mM EDTA, 0.005% (w/v) surfactant P-20, and 10 mM HEPES, pH 7.4). A capture antibody, goat anti-mouse Kappa (Southern Biotechnology, Inc), is immobilized onto flow cells using amine-coupling chemistry. Flow cells (1-4) are activated for 7 minutes with a 1:1 mixture of 0.1 M N-hydroxysuccinimide and 0.1 M 3-(N,N-dimethylamino)propyl-N-ethylcarbodiimide at a flow rate of 10 μl/min. Goat anti-mouse Kappa (30 μg/mL in 10 mM sodium acetate, pH 4.5) is manually injected over all 4 flow cells at a flow rate of 10 μL/min. The surface density is monitored and additional goat anti-mouse Kappa is injected if needed to individual cell until all flow cells reach a surface density of 4500-5000 response units (RU). Surfaces are blocked with a 7 minute injection of 1 M ethanolamine-HCl, pH 8.5(10 μl/min). To ensure complete removal of any noncovalently bound goat anti-mouse Kappa, 15 μL of 10 mM glycine, pH 1.5 is injected twice. Running buffer used for kinetic experiments contained 10 mM HEPES, pH 7.4, 150 mM NaCl, 0.005% P20.
(§5) Collection of kinetic binding data is performed at maximum flow rate (100 μL/min) and a low surface density to minimize mass transport effects.
A general note: Surface plasmon resonance follows binding to a sensor surface in real time, without labels.

The target of assay [12] is B2. Described as above. On the procedure:
as §4, §5

Assay [13] addresses T3, full-length human ghrelin not acylated (human).
T3 construct: also called hGhrelin (desacyl); des-acyl hGhrelin
Described as above. The protocol:
as §4, §5

The target in assay [14] is T4, human ghrelin peptide spanning amino acids 4-20 (human).
T4 peptide: FLSPEHQRVQQRKESKK
The assay can be described thus: cell-based or functional assay.

Assay [15] addresses T5, human ghrelin peptide 4-16 (human).
T5 peptide: FLSPEHQRVQQRK
The assay can be described thus: cell-based or functional assay.

Assay [16] deals with T6, human ghrelin peptide 4-28 (human).
T6 peptide: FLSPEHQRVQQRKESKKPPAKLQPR
The assay can be described thus: cell-based or functional assay.

The target in the assay “Ghrelin (1-8 acyl)” is B8. The assay can be described thus: competitive ELISA on coated BSA-hGhrelin. On the procedure:
as §1, §2

Assay [17] concerns the target T7, human ghrelin peptide 13-19 (human).
T7 peptide: QQRKESK
Nature of the assay: FLIPR assay, peptide competes with hGhrelin for the Fab.

Assay [18] has as its target T8, human ghrelin peptide 18-28 (human).
T8 peptide: SKKPPAKLQPR
Described as above.

Assay [19] addresses T9, human ghrelin peptide 7-16 (human).
T9 peptide: PEHQRVQQRK
The description is as above.

The assay “Ghrelin (9-28)” addresses B9. The description is as above.
The assay “Ghrelin (1-8, desacyl)” deals with B5. The assay can be described thus: FLIPR assay, peptide competes with hGhrelin for the Fab (no reduction means the Fab does not bind the peptide).
Assay [20] deals with B2. The assay can be described thus: cell-based or functional assay.

Positions count from the first letter of the chain named. No end group written: not given here. *: point of attachment. Octanoyl = CCCCCCCC(=O)*

T1 sequence (Q92847 whole entry): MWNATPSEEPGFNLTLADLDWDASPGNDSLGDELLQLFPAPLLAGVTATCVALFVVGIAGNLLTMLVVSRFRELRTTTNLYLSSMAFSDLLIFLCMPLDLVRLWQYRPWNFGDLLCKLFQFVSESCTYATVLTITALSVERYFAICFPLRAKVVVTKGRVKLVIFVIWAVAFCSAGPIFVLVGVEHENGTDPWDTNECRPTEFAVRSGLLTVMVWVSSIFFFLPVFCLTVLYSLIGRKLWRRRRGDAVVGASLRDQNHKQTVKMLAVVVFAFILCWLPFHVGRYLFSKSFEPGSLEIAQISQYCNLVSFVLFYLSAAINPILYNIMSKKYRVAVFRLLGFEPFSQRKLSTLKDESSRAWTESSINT

With B1, the “Ave. OD” value in the assay with Fab 1621 [1] was 1.17 OD; with Fab 1181 [2] it was 0.883 OD; with Fab 1181 [3], 1.23 OD; with Fab 1181 [4] it was 0.178 OD; in the assay with Fab 1181 [6], 1.12 OD; in the assay with Fab 1621 [7], 0.999 OD. For the same molecule, the “Ave. OD” value stood at 0.429 OD with Fab 1621 [8] and 0.932 OD with Fab 1621 [9]. For the same molecule, the binding result in assay [5] is listed as “binds”.
Take B2: the “Ave. OD” value was 1.17 OD in the assay with Fab 1621 [1]; 0.0497 OD with Fab 1181 [2]; 1.23 OD in the assay with Fab 1181 [3]; 0.0445 OD in the assay with Fab 1181 [4]; 0.0784 OD in the assay with Fab 1181 [6]; 0.131 OD with Fab 1621 [7]. Further, the “Ave. OD” value was found to be 0.043 OD with Fab 1621 [8] and 0.0495 OD with Fab 1621 [9].
Consider B3, for which, in [5], the binding result is reported as “binds”.
As for B4, in [10], the binding result was “no binding (tested: 100 nM peptide)”.
Regarding B5, the “Ave. OD” value in the assay with Fab 1621 [1] is 1.17 OD; with Fab 1181 [2], 1.19 OD; with Fab 1181 [3], 1.23 OD; with Fab 1181 [4], 1.18 OD; with Fab 1181 [6], 1.22 OD; with Fab 1621 [7] it was 1.38 OD. Moreover, the “Ave. OD” value with Fab 1621 [8] was found to be 1.26 OD; in the assay with Fab 1621 [9] it was 1.33 OD.
As usually defined, the Kd is the constant that tells how readily two partners part at equilibrium. A lower Kd goes with a tighter complex. Broadly, the kon is the second-order rate constant of association. Higher therefore signals fast association. Turning to B6, the figures for the Kd in [11], in assay [12] and in assay [13] were 10.4 nM, 0.202 nM and 0.434 nM, respectively. The on-rate (kon) in assay [12] is 3.39e+06 M⁻¹ s⁻¹. Further, the “reduction of Fab inhibition of hGhrelin (0.83 nM), FLIPR calcium assay; peptide 100 nM, Fab 0.95 nM” value in [14] came to 74%; in assay [15], 30%; in assay [16] it was 80%. In addition, the binding result in the assay with Ghrelin (1-8 acyl) is listed as “no binding (tested: 5 µg/ml)”; in assay [17] it was “no binding (tested: 100 nM peptide)”; in assay [18] it was “no binding (tested: 100 nM peptide)”; in assay [19], “no binding (tested: 100 nM peptide)”; with Ghrelin (9-28), “no binding (tested: 100 nM peptide)”; with Ghrelin (1-8, desacyl), “no binding (tested: 100 nM peptide)”. Moreover, the “IC50 (nM), Inhibition of hGhrelin at 0.8 nM, FLIPR calcium assay” value in assay [20] was 0.8 nM.
B7: the Kd in assay [11] turned out to be 5.7 nM; in [12], 0.68 nM; in assay [13], 1.74 nM. Also, the binding result is “no binding (tested: 5 µg/ml)” with Ghrelin (1-8 acyl); “no binding (tested: 100 nM peptide)” in assay [17]; “no binding (tested: 100 nM peptide)” in [18]; “no binding (tested: 100 nM peptide)” in assay [19]; “no binding (tested: 100 nM peptide)” in the assay with Ghrelin (9-28); “no binding (tested: 100 nM peptide)” with Ghrelin (1-8, desacyl). For the same molecule, the “IC50 (nM), Inhibition of hGhrelin at 0.8 nM, FLIPR calcium assay” value in assay [20] stood at 1.64 nM.
For the molecule B8, the “Ave. OD” value is 1.17 OD in the assay with Fab 1621 [1]; 1.22 OD with Fab 1181 [2]; 1.23 OD in the assay with Fab 1181 [3]; 1.21 OD in the assay with Fab 1181 [4]; 1.26 OD with Fab 1181 [6]; 1.36 OD with Fab 1621 [7]. Moreover, the “Ave. OD” value with Fab 1621 [8] turned out to be 1.22 OD; in the assay with Fab 1621 [9], 1.32 OD.
Regarding B9, the “Ave. OD” value was determined as 1.17 OD with Fab 1621 [1]; 1.17 OD with Fab 1181 [2]; 1.23 OD with Fab 1181 [3]; 1.11 OD with Fab 1181 [4]; 1.13 OD with Fab 1181 [6]; 1.04 OD with Fab 1621 [7]. Also, the “Ave. OD” value is 1.02 OD with Fab 1621 [8] and 1.05 OD in the assay with Fab 1621 [9].
